The results in this text go back to PMC10620215.

For the experiment, the target named is EcbAgaN (Escherichia coli long-B pAgo-associated nuclease), N-terminal 6xHis tag (Escherichia coli). Briefly: SEC-MALS; EcbAgaN, already purified by SEC, loaded onto Superdex 200 10/300 GL in 20 mM Tris-HCl pH 7.5, 250 mM NaCl, 0.5 mL/min; BSA monomer as standard. A general note: In gel filtration, larger molecules generally elute earlier.

Regarding “EcbAgaN (Escherichia coli long-B pAgo-associated nuclease), N-terminal 6xHis tag (enzyme)”, the stoichiometry N (usually a count of units in the complex or per binding partner) came to 2.
